{"source": "paper PMC9916836"}
{"biological_target": "T1, UvrY-His6 (Escherichia coli O157:H7 (EHEC; EDL933?)) (UniProt P66798)", "T1 sequence": "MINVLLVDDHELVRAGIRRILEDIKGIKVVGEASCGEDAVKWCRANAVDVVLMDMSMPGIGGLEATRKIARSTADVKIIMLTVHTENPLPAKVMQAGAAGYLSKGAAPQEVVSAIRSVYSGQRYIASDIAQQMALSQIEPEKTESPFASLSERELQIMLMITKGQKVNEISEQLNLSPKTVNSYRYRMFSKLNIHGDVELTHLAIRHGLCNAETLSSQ", "assay": "EMSA"}
{"sequence": "GTTATCGCAGGGAGCCACACAGCGTGTGTTGGACGCGACTCAGCTTTACCTTGGTGAGATTGGTTATTCACCACTGTTAACGGCCGAAGAAGAAGTTTATTTTGCGCGTCGCGCACTGCGTGGAGATGTCGCCTCTCGCCGCCGGATGATCGAGAGTAACTTGCGTCTGGTGGTAAAA (double strand) [rpoS coding region]", "binding": "no binding"}
{"sequence": "AGATTCATCTGCAGGCTCTGAAGTAAGTATACGTGTGAATATTATTGCTTGAAAAAGCGTATTGGATAATATATACAGTATATGTACTTTATGTACATTGCAACTATTTAAATAATATAATAGTTGCCTATGGGATAATTTGGTTATTTATAACCAGGTAAATGTCTAAATTAGACAAAAGGAGAAAGATCAATGGAAGCAGCAAATTTAAGTCCTTCTGGTGCAGTAATG (double strand) [PLEE2/3]", "binding": "no binding"}
{"sequence": "GGGTGCTACTTTACGCCTTTGCTTTAAACAAACAATCAACCGCCATCAGTATTTGCACATTTTCAGAGTTTTATATAAAAGCAATTAACTGATTTATATAGCTTATTTGACATGCATCGCAGAATTTTCTCTGCTATTTCGCATAAAGACTATCGGCAATGTCTCACAAAGCGTATGGCTTTTACTTACAACGCTCACGCCGAAAAATCCGCCTTTTATTATGGTTCAGGTATAATCGCCGCAAAGCTTTGACTGACGGAGACGACCGCTT (double strand) [PcsrC]", "binding": "binds"}
{"sequence": "CATTAGCCATTGGAAACTCACGTAATCATTAATTATGAATATTCCATTAAATAGTACTGTACAACAGCTTCCTTTCTACTCTATTCTTAGACGATGTAAGTTCACCATATTTTTTCTCATTGTTCAACCACCAGGATGAATAAAATTTAAAAATGTTATCCTCATATAAAATAAAACTTCTCAATGGTGCGATGCG (double strand) [PLEE4]", "binding": "no binding"}
